Results: article PMC11376372

How the values were obtained:
[1] = target: oxidized wheat protein disulfide isomerase (wPDI^O) (wheat) (UniProt P52589); assay: ITC; MicroCal VP-ITC; 0.3 mM 1Dx5-NTD^AAA titrated into 70 uM wPDI, 27 additions of 10 uL; 0.5 mM GSSG in both buffers (oxidized wPDI); single-site binding model
[2] = target: reduced wheat protein disulfide isomerase (wPDI^R) (wheat) (UniProt P52589); assay: ITC; MicroCal VP-ITC; 0.3 mM 1Dx5-NTD^AAA titrated into 70 uM wPDI, 27 additions of 10 uL; 1 mM DTT in both buffers (reduced wPDI); single-site binding model

Kd [1]: 316 µM
Kd [2]: 2.59 µM
Substance: 1Dx5-NTD^AAA, triple mutant of the N-terminal domain of HMW glutenin subunit 1Dx5 in which all three cysteines were mutated into alanine (domain or fragment)
